± gives the uncertainty stated by the source.
Experiment: protein stability index of a GFP-peptide fusion (yeast GPS) (PSI 1-4); higher = more stable; sorted into four equal gates, so the index is relative within each strain
Summary of the method: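 Tiled 17-residue peptides from yeast proteins were fused downstream of GFP on a plasmid that also expresses Cherry, and the pooled library was carried in yeast. Mid-log cultures grown in leucine-free medium were sorted into four equal gates by GFP/Cherry fluorescence ratio. Plasmids from each gate were PCR-amplified and Illumina-sequenced, and reads were assigned to strains by barcodes. Each peptide's protein stability index is the sum, over gates, of the gate's read frequency multiplied by its gate number.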

| Sequence | protein stability index (doa10∆) | protein stability index (pdr5∆) | protein stability index (san1∆) | protein stability index (ubr1∆) |
| --- | --- | --- | --- | --- |
| IVPSMTHLEIEPFTILG [RET1] | 1.49 ± 0.037 | 2.05 ± 0.055 | 2.29 ± 0.1 | 2.27 ± 0.035 |
| KNQHRAASWYGSFNEMK [RMP1] | 2.89 ± 0.048 | 3.21 ± 0.055 | 3.12 ± 0.042 | 3.18 ± 0.038 |
| GDLKLQVLLDEEYKQLV [RPO21] | 2.48 ± 0.12 | 2.94 ± 0.082 | 2.73 ± 0.11 | 3.2 ± 0.062 |
| SLTSKRLISQSLLASKS [RIP1] | – | – | – | 1.36 ± 0.21 |
| QPVNFNRSWDHAYNITF [RPO31] | 2.13 ± 0.12 | 2.37 ± 0.055 | 2.39 ± 0.12 | 2.45 ± 0.047 |
| RKVRTKKWKKYWQYKAG [SWP82] | 2.47 ± 0.089 | 2.17 ± 0.12 | 2.83 ± 0.12 | 2.04 ± 0.058 |
| QGIIYAKVNRPAKIVNF [RPN5] | 2.61 ± 0.13 | 2.72 ± 0.15 | 2.37 ± 0.12 | 2.4 ± 0.16 |
| TCVAKKGIAKEHAKWGP [RPB3] | 3.31 ± 0.07 | 3.28 ± 0.08 | 3.21 ± 0.07 | 3.16 ± 0.047 |
| LERTAIELKTDWVRFLA [RPN1] | 1.58 ± 0.13 | 1.49 ± 0.098 | 1.55 ± 0.11 | 1.17 ± 0.067 |
| KYLPHAILKLLENMPHP [PRP8] | 2 ± 0.081 | 1.46 ± 0.056 | 1.67 ± 0.1 | 1.61 ± 0.042 |
| AQQKLKQNPGLMQNMMN [SRP54] | 2.74 ± 0.056 | 2.42 ± 0.059 | 2.79 ± 0.044 | 2.54 ± 0.033 |
| QYYVTQHDKMVDKIFEK [SWI1] | 2.96 ± 0.1 | 2.42 ± 0.06 | 2.68 ± 0.068 | 2.84 ± 0.034 |
| MKPEVEQELAHILLTEL [FAS2] | 3.006 ± 0.028 | 2.988 ± 0.028 | 2.753 ± 0.025 | 2.722 ± 0.024 |
| KFFTQSNLEKLPKYKEK [MED7] | 2.43 ± 0.046 | 2.7 ± 0.048 | 2.82 ± 0.053 | 2.62 ± 0.04 |
| SGELLQGIVRVYSKQAT [MCD1] | 1.82 ± 0.047 | 2.17 ± 0.056 | 2.22 ± 0.058 | 1.76 ± 0.049 |
| VAMCFVINKLDRLILDL [SNU114] | 2.23 ± 0.055 | 2.24 ± 0.056 | 2.15 ± 0.096 | 2.77 ± 0.04 |
| NYIENMNEMCKKINAKE [RPN8] | 2.84 ± 0.045 | 3.07 ± 0.059 | 3.12 ± 0.043 | 3 ± 0.039 |
| PKGVILYGAPGTGKTLL [RPT2] | 3.67 ± 0.27 | – | – | 3.13 ± 0.22 |
| ENDEEDIYMHDVNSASK [RRP4] | 3.47 ± 0.098 | 3.47 ± 0.095 | 3.01 ± 0.095 | 3.31 ± 0.059 |
| SVAKIRFPETMDETQTR [RPO21] | 3.55 ± 0.073 | 3.34 ± 0.12 | 3.66 ± 0.063 | 3.59 ± 0.049 |
| FIYGMSAKDHPKVKEIK [PRP8] | 2.53 ± 0.25 | 3.12 ± 0.19 | 2.72 ± 0.23 | 3.33 ± 0.16 |
| VIPSYSKWFNLEKIHSI [SWI3] | 1.69 ± 0.045 | 1.6 ± 0.049 | 1.44 ± 0.075 | 1.89 ± 0.038 |
| MAPYLPGSRASSRFIKG [RPN2] | 2.44 ± 0.059 | 2.66 ± 0.064 | 2.45 ± 0.063 | 2.53 ± 0.044 |
| DFNEIVQYLSGAHGNSD [POP3] | 1.24 ± 0.096 | 1.22 ± 0.14 | 1.18 ± 0.21 | 1.28 ± 0.11 |
| RSWNEPSKSQTNFKEEI [YML103C/NUP188] | 2.9 ± 0.12 | 2.98 ± 0.13 | 3.17 ± 0.12 | 3.11 ± 0.075 |

| Sequence | protein stability index (doa10∆) | protein stability index (pdr5∆) | protein stability index (san1∆) | protein stability index (ubr1∆) |
| --- | --- | --- | --- | --- |
| WTEASSSGAGTVKLYLP [ECM29] | 2.05 ± 0.052 | 1.82 ± 0.047 | 2.09 ± 0.067 | 2.02 ± 0.05 |
| SEAEYSKDIETLKKEWL [YIL149C/MLP2] | 3.26 ± 0.083 | 3.04 ± 0.085 | 3.13 ± 0.051 | 3 ± 0.049 |
| SDLVNQGIIYAKVNRPA [RPN5] | 2.97 ± 0.15 | 3.66 ± 0.26 | 2.84 ± 0.17 | – |
| YRRLFAKRLIHGTSTSA [CDC53] | 1.44 ± 0.11 | 1.36 ± 0.11 | – | – |
| DDMDIDEVNDRSDISDS [PCI8] | 3.22 ± 0.12 | 3.1 ± 0.1 | 3.26 ± 0.048 | 3.02 ± 0.085 |
| EKCKEINVETVYDIMAL [BRR2] | 2.28 ± 0.059 | 2.44 ± 0.049 | 2.57 ± 0.07 | 2.5 ± 0.046 |
| ARKETYSSYIYKVLKQT [HTB1] | 2.89 ± 0.058 | 2.43 ± 0.048 | 1.97 ± 0.072 | 2.47 ± 0.037 |
| MFKLGNFESPVLKELSR [YLR018C/POM34] | – | 3.37 ± 0.23 | 2.85 ± 0.15 | 2.66 ± 0.16 |
| ESYYNWKYNNFLQKFEI [YML103C/NUP188] | 2.47 ± 0.056 | 2.83 ± 0.052 | 2.77 ± 0.059 | 2.72 ± 0.034 |
| HVQFRLGNVDAFQLADG [PRP8] | 3.28 ± 0.11 | 2.79 ± 0.084 | 2.47 ± 0.11 | 1.61 ± 0.046 |
| SAWIWPMDEETKLYFDV [RPC25] | 2.17 ± 0.075 | 2.4 ± 0.11 | 2.49 ± 0.092 | 2.41 ± 0.15 |
| RGYTCQFVDMVLPNTAL [FAS1] | 1.75 ± 0.075 | 1.88 ± 0.048 | 1.32 ± 0.089 | 1.53 ± 0.05 |
| QVLKCKESWDPNTTKTK [YGR119C/NUP57] | 3.52 ± 0.21 | 3.41 ± 0.076 | 3.63 ± 0.089 | 3.55 ± 0.15 |
| INELFKKYTQNNPLLLI [RPN8] | 1.85 ± 0.071 | 1.48 ± 0.05 | 1.37 ± 0.14 | 1.11 ± 0.049 |
| VNYNSDMIKCFLPKLNS [NUT1] | 2.66 ± 0.13 | 1.98 ± 0.12 | 2.06 ± 0.13 | 1.27 ± 0.066 |
| KVEIKKVNSRDDSFFNE [PRP28] | 3.16 ± 0.082 | 3.31 ± 0.082 | 2.71 ± 0.092 | 3.38 ± 0.12 |
| GKIRGVEDDLVTVQTEL [SMC2] | 3.1 ± 0.12 | 2.62 ± 0.068 | 2.48 ± 0.077 | 2.85 ± 0.076 |
| GATYRGKLVESEDSMNV [SMD3] | 3.17 ± 0.084 | 2.73 ± 0.053 | 3.01 ± 0.06 | 3.33 ± 0.055 |
| KTQQNEKSENGENDDDT [RPN3] | 3.04 ± 0.19 | 3.41 ± 0.18 | 2.92 ± 0.13 | 3.34 ± 0.11 |
| LEALMDILLCYQKLFSQ [SRB8] | 2.98 ± 0.055 | 3.16 ± 0.052 | 3.18 ± 0.048 | 3.05 ± 0.081 |
| ILKTLERSICALGEFAD [YML031W/NDC1] | 2.58 ± 0.053 | 3.04 ± 0.075 | 3.05 ± 0.065 | 2.78 ± 0.05 |
| QTENDLKDIEARIKEKA [RPT1] | 2.8 ± 0.13 | 2.91 ± 0.11 | 3.03 ± 0.099 | 3.37 ± 0.065 |
| SIDDHPYNLNLFPNELY [RPC31] | 2.14 ± 0.048 | 2.53 ± 0.061 | 2.69 ± 0.088 | 2.68 ± 0.064 |
| YPEVVTPYNIDRLTQLV [RPO21] | 2.56 ± 0.2 | – | – | – |
| ATLQSNEPTQKDEEETE [DSN1] | 3.21 ± 0.16 | 3.18 ± 0.12 | 3.17 ± 0.1 | 2.79 ± 0.1 |
